Data: paper PMC8634136 (The EMBO Journal, 2021)

B1: MCM6 (natural protein, human)
chain: MDLAAAAEPGAGSQHLEVRDEVAEKCQKLFLDFLEEFQSSDGEIKYLQLAEELIRPERNTLVVSFVDLEQFNQQLSTTIQEEFYRVYPYLCRALKTFVKDRKEIPLAKDFYVAFQDLPTRHKIRELTSSRIGLLTRISGQVVRTHPVHPELVSGTFLCLDCQTVIRDVEQQFKYTQPNICRNPVCANRRRFLLDTNKSRFVDFQKVRIQETQAELPRGSIPRSLEVILRAEAVESAQAGDKCDFTGTLIVVPDVSKLSTPGARAETNSRVSGVDGYETEGIRGLRALGVRDLSYRLVFLACCVAPTNPRFGGKELRDEEQTAESIKNQMTVKEWEKVFEMSQDKNLYHNLCTSLFPTIHGNDEVKRGVLLMLFGGVPKTTGEGTSLRGDINVCIVGDPSTAKSQFLKHVEEFSPRAVYTSGKASSAAGLTAAVVRDEESHEFVIEAGALMLADNGVCCIDEFDKMDVRDQVAIHEAMEQQTISITKAGVKATLNARTSILAAANPISGHYDRSKSLKQNINLSAPIMSRFDLFFILVDECNEVTDYAIARRIVDLHSRIEESIDRVYSLDDIRRYLLFARQFKPKISKESEDFIVEQYKHLRQRDGSGVTKSSWRITVRQLESMIRLSEAMARMHCCDEVQPKHVKEAFRLLNKSIIRVETPDVNLDQEEEIQMEVDEGAGGINGHADSPAPVNGINGYNEDINQESAPKASLRLGFSEYCRISNLIVLHLRKVEEEEDESALKRSELVNWYLKEIESEIDSEEELINKKRIIEKVIHRLTHYDHVLIELTQAGLKGSTEGSESYEEDPYLVVNPNYLLED
notes: human MCM6, subunit of hsCMG; Subunit of the CMG helicase in the replisome structure; source: Hi5 insect cells co-infected with baculoviruses for MCM2-7, GINS and CDC45; purified as hsCMG (Flag M2, Strep-Tactin XT, MonoQ)
B2: TIMELESS (natural protein, human)
chain: MDLHMMNCELLATCSALGYLEGDTYHKEPDCLESVKDLIRYLRHEDETRDVRQQLGAAQILQSDLLPILTQHHQDKPLFDAVIRLMVNLTQPALLCFGNLPKEPSFRHHFLQVLTYLQAYKEAFASEKAFGVLSETLYELLQLGWEERQEEDNLLIERILLLVRNILHVPADLDQEKKIDDDASAHDQLLWAIHLSGLDDLLLFLASSSAEEQWSLHVLEIVSLMFRDQNPEQLAGVGQGRLAQERSADFAELEVLRQREMAEKKTRALQRGNRHSRFGGSYIVQGLKSIGERDLIFHKGLHNLRNYSSDLGKQPKKVPKRRQAARELSIQRRSALNVRLFLRDFCSEFLENCYNRLMGSVKDHLLREKAQQHDETYYMWALAFFMAFNRAASFRPGLVSETLSVRTFHFIEQNLTNYYEMMLTDRKEAASWARRMHLALKAYQELLATVNEMDISPDEAVRESSRIIKNNIFYVMEYRELFLALFRKFDERCQPRSFLRDLVETTHLFLKMLERFCRSRGNLVVQNKQKKRRKKKKKVLDQAIVSGNVPSSPEEVEAVWPALAEQLQCCAQNSELSMDSVVPFDAASEVPVEEQRAEAMVRIQDCLLAGQAPQALTLLRSAREVWPEGDVFGSQDISPEEEIQLLKQILSAPLPRQQGPEERGAEEEEEEEEEEEEELQVVQVSEKEFNFLDYLKRFACSTVVRAYVLLLRSYQQNSAHTNHCIVKMLHRLAHDLKMEALLFQLSVFCLFNRLLSDPAAGAYKELVTFAKYILGKFFALAAVNQKAFVELLFWKNTAVVREMTEGYGSLDDRSSSRRAPTWSPEEEAHLRELYLANKDVEGQDVVEAILAHLNTVPRTRKQIIHHLVQMGLADSVKDFQRKGTHIVLWTGDQELELQRLFEEFRDSDDVLGHIMKNITAKRSRARIVDKLLALGLVAERRELYKKRQKKLASSILPNGAESLKDFCQEDLEEEENLPEEDSEEEEEGGSEAEQVQGSLVLSNENLGQSLHQEGFSIPLLWLQNCLIRAADDREEDGCSQAVPLVPLTEENEEAMENEQFQQLLRKLGVRPPASGQETFWRIPAKLSPTQLRRAAASLSQPEEEQKLQPELQPKVPGEQGSDEEHCKEHRAQALRALLLAHKKKAGLASPEEEDAVGKEPLKAAPKKRQLLDSDEEQEEDEGRNRAPELGAPGIQKKKRYQIEDDEDD
notes: residues 7-803 modelled, 527-684 not seen; Purified together with TIPIN; written here as a single subunit for the pairwise contacts in the replisome structure
B3: MCM4 (natural protein, human)
chain: MSSPASTPSRRGSRRGRATPAQTPRSEDARSSPSQRRRGEDSTSTGELQPMPTSPGVDLQSPAAQDVLFSSPPQMHSSAIPLDFDVSSPLTYGTPSSRVEGTPRSGVRGTPVRQRPDLGSAQKGLQVDLQSDGAAAEDIVASEQSLGQKLVIWGTDVNVAACKENFQRFLQRFIDPLAKEEENVGIDITEPLYMQRLGEINVIGEPFLNVNCEHIKSFDKNLYRQLISYPQEVIPTFDMAVNEIFFDRYPDSILEHQIQVRPFNALKTKNMRNLNPEDIDQLITISGMVIRTSQLIPEMQEAFFQCQVCAHTTRVEMDRGRIAEPSVCGRCHTTHSMALIHNRSLFSDKQMIKLQESPEDMPAGQTPHTVILFAHNDLVDKVQPGDRVNVTGIYRAVPIRVNPRVSNVKSVYKTHIDVIHYRKTDAKRLHGLDEEAEQKLFSEKRVELLKELSRKPDIYERLASALAPSIYEHEDIKKGILLQLFGGTRKDFSHTGRGKFRAEINILLCGDPGTSKSQLLQYVYNLVPRGQYTSGKGSSAVGLTAYVMKDPETRQLVLQTGALVLSDNGICCIDEFDKMNESTRSVLHEVMEQQTLSIAKAGIICQLNARTSVLAAANPIESQWNPKKTTIENIQLPHTLLSRFDLIFLLLDPQDEAYDRRLAHHLVALYYQSEEQAEEELLDMAVLKDYIAYAHSTIMPRLSEEASQALIEAYVDMRKIGSSRGMVSAYPRQLESLIRLAEAHAKVRLSNKVEAIDVEEAKRLHREALKQSATDPRTGIVDISILTTGMSATSRKRKEELAEALKKLILSKGKTPALKYQQLFEDIRGQSDIAITKDMFEEALRALADDDFLTVTGKTVRLL
notes: MCM4, human; Stood in the structure as a subunit of m1; source: Hi5 insect cells, purified as a subunit of hsCMG

What was measured:
CLASPIN = biological target: T1, CLASPIN (human, UniProt Q9HAW4-1 1-1339); experiment: cryo-EM structure; independent replisome preparation that also contained CLASPIN; map EMD-13494 (to be published in a separate study), model PDB 7PFO docked into the density; settings: both partners purified
T1 construct: human CLASPIN; residues 284-319, 525-540 and 592-618 modelled
T1 sequence (Q9HAW4 whole entry, the tested form may be a part): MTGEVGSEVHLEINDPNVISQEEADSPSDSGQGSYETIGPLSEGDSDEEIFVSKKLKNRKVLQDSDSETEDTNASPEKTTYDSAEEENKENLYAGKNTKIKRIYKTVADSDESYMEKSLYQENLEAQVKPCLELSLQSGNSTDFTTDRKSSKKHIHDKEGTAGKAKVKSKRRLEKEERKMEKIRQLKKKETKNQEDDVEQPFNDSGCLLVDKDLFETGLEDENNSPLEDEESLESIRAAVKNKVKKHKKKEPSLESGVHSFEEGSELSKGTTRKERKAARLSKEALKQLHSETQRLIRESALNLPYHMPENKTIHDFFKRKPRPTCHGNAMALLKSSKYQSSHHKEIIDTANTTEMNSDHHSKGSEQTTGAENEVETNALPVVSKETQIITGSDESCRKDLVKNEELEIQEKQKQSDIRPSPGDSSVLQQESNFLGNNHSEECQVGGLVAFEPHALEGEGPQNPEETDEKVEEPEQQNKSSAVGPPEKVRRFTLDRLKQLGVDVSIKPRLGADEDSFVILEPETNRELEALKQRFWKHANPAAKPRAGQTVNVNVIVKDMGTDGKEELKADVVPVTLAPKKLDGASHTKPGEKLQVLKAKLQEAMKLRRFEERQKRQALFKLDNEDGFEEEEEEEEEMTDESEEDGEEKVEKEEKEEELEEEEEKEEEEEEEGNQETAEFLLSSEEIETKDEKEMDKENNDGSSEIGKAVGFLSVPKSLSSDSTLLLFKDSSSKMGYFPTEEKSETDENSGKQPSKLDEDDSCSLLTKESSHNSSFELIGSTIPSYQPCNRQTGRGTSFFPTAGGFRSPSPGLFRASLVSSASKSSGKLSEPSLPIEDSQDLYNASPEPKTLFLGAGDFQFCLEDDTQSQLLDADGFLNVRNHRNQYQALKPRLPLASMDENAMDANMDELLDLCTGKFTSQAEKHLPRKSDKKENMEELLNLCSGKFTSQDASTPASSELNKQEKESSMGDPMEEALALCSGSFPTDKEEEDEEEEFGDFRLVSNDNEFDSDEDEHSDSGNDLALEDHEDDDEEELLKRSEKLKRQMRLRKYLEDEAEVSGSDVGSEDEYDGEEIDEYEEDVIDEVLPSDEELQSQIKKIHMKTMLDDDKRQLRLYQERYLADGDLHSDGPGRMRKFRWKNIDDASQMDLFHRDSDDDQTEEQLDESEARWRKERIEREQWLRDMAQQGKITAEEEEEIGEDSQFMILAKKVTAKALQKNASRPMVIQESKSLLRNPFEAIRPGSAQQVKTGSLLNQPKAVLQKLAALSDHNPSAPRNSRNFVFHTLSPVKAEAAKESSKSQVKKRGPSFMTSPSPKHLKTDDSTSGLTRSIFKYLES

TIMELESS = biological target: T2, TIMELESS (human, UniProt Q9UNS1 1-1208); experiment: cryo-EM structure; replisome reconstituted on fork DNA with AMP-PNP, isolated on a glycerol gradient with glutaraldehyde and BS3; 3.2 Å overall; a sample without CLASPIN solved at 3.4 Å; settings: both partners purified
T2 construct: Stood in the structure as a subunit of m3; residues 7-803 modelled (527-684 not visualised)
T2 sequence: B2 chain

Binder	binding result (CLASPIN)	binding result (TIMELESS)
B1	binds	–
B2	binds	–
B3	–	binds
